According to patent US20240327535A1 (EISAI R AND D MANAGEMENT, published 2024):
Where two headings read alike, the source gives them in different places.

T1: human BCMA on NCI-H929, OPM2 and Raji cells (human, UniProt Q02223 1-184)
T1 construct: endogenous BCMA of human cell lines; also called TNFRSF17; CD269
T1 chain: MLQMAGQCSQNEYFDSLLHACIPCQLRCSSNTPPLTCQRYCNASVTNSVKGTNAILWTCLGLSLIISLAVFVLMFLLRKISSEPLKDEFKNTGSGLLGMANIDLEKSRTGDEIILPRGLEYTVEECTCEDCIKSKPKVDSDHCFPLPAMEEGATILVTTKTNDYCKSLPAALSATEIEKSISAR

T2: extracellular domain of human BCMA (human, UniProt Q02223 1-54)
T2 construct: amine-linked to Octet AR2G tips; also called hsBCMA; BCMA (human)
T2 sequence: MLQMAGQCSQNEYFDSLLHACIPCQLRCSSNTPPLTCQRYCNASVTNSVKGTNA


Experiments:
[1] = molecular target: T1, human BCMA on NCI-H929, OPM2 and Raji …; assay: flow cytometry, OPM2 cells
[2] = molecular target: T1, human BCMA on NCI-H929, OPM2 and Raji …; assay: flow cytometry, NCI-H929 cells
[3] = molecular target: T1, human BCMA on NCI-H929, OPM2 and Raji …; assay: flow cytometry, Raji cells
[4] = molecular target: T1, human BCMA on NCI-H929, OPM2 and Raji …; assay: flow cytometry on NCI-H929 cells (BCMA high), fluorescent anti-human IgG1 secondary antibody, MFI against test article concentration
[5] = molecular target: T1, human BCMA on NCI-H929, OPM2 and Raji …; assay: flow cytometry, NCI-H929 cells
[6] = molecular target: T1, human BCMA on NCI-H929, OPM2 and Raji …; assay: cell-based or functional assay
[7] = molecular target: T3, extracellular domain of rhesus monkey BCMA (rhesus monkey, UniProt F7FFA0 1-53); assay: Octet BLI; Fab 200 nM
T3 construct: extracellular domain; also called RhBCMA
T3 sequence (F7FFA0 entry or part of it): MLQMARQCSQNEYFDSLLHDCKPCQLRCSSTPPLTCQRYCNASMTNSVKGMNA

[8] = molecular target: T2, extracellular domain of human BCMA; assay: Octet BLI; Fab 200 nM
[9] = molecular target: T3, extracellular domain of rhesus monkey …; assay: Octet BLI; Fab 200 nM; remark: listed apart in the source
[10] = molecular target: T2, extracellular domain of human BCMA; assay: Octet BLI; Fab 200 nM; remark: listed apart in the source

| Binder | EC50 (read off the curve) [4] [nM] | Kd [5] [nM] | GI50 (nM) OPM2.1, cell viability [6] [nM] | LD50 (nM) OPM2.1, cell viability [6] [nM] | also measured |
| --- | --- | --- | --- | --- | --- |
| AB212 (antibody, human IgG1, kappa, V domains shown, IgG1 kappa) VH: QVQLVQSGAEVKKPGSSVKVSCKASGGTFSNYWIHWVRQAPGQGLEWMGGTYRSHSDTNYNQKFKSRVTITADKSTSTAYMELSSLRSEDTAVYYCARGAIYHGYDVIENWGQGTLVTVSS VL: DIQMTQSPSSLSASVGDRVTITCRASQSISSYLNWYQQKPGKAPKLLIYATSNLQIGVPSRFSGSGSGTDFTLTISSLQPEDFATYYCQQFRRLPWTFGQGTKLEIKR | – | – | – | – | Kd [1]: 4.33 nM; Kd [2]: 9.68 nM; Kd [3]: 16 nM |
| AB200-ADL1-D2-02 (antibody, human IgG1, kappa, V domains shown, ADL1-D2 linker-payload on cysteine residues of the antibody, DAR 3.92, antibody-drug conjugate; also called AB200 ADC incorporating the ADL1-D2 linker-payload) VH: QVQLVQSGAEVKKPGSSVKVSCKASGGTFSNYWMHWVRQAPGQGLEWMGATYRGHSDTYYNQKFKGRVTITADKSTSTAYMELSSLRSEDTAVYYCARGAIYDGYDVLDNWGQGTLVTVSS VL: DIQMTQSPSSLSASVGDRVTITCSASQDISNYLNWYQQKPGKAPKLLIYYTSNLHSGVPSRFSGSGSGTDFTLTISSLQPEDFATYYCQQYRKLPWTFGQGTKLEIKR | ~9 | 9.66 | – | – | – |
| AB200 (antibody, human IgG1, kappa, V domains shown, IgG1 kappa) VH: QVQLVQSGAEVKKPGSSVKVSCKASGGTFSNYWMHWVRQAPGQGLEWMGATYRGHSDTYYNQKFKGRVTITADKSTSTAYMELSSLRSEDTAVYYCARGAIYDGYDVLDNWGQGTLVTVSS VL: DIQMTQSPSSLSASVGDRVTITCSASQDISNYLNWYQQKPGKAPKLLIYYTSNLHSGVPSRFSGSGSGTDFTLTISSLQPEDFATYYCQQYRKLPWTFGQGTKLEIKR | – | – | – | – | Kd [1]: 10 nM; Kd [2]: 50.5 nM; Kd [3]: 14 nM |
| AB200-ADL1-D12-05 (antibody, human IgG1, kappa, V domains shown, ADL1-D12 linker-payload on cysteine residues of the antibody, DAR 4.24, antibody-drug conjugate) VH: QVQLVQSGAEVKKPGSSVKVSCKASGGTFSNYWMHWVRQAPGQGLEWMGATYRGHSDTYYNQKFKGRVTITADKSTSTAYMELSSLRSEDTAVYYCARGAIYDGYDVLDNWGQGTLVTVSS VL: DIQMTQSPSSLSASVGDRVTITCSASQDISNYLNWYQQKPGKAPKLLIYYTSNLHSGVPSRFSGSGSGTDFTLTISSLQPEDFATYYCQQYRKLPWTFGQGTKLEIKR | ~9 | 9.7 | – | – | – |
| AB214-ADL1-D2-02 (antibody, human IgG1, kappa, V domains shown, ADL1-D2 linker-payload on cysteine residues of the antibody, DAR 4.12) VH: QVQLVQSGAEVKKPGSSVKVSCKASGGTFSNYWIHWVRQAPGQGLEWMGATYRSQSDTYYNQKYKSRVTITADKSTSTAYMELSSLRSEDTAVYYCARGAVYHGYDVIDNWGQGTLVTVSS VL: DIQMTQSPSSLSASVGDRVTITCRASQSISSYLNWYQQKPGKAPKLLIYATSNLQIGVPSRFSGSGSGTDFTLTISSLQPEDFATYYCQQYRRIPWTFGQGTKLEIKR | ~1 | 1.02 | 1.54 | 25.1 | – |
| AB215-ADL1-D2-02 (antibody, human IgG1, kappa, V domains shown, ADL1-D2 linker-payload on cysteine residues of the antibody, DAR 3.96) VH: QVQLVQSGAEVKKPGSSVKVSCKASGGTFTNYWIHWVRQAPGQGLEWMGGTYRSHSTTYYNQKFKSRVTITADKSTSTAYMELSSLRSEDTAVYYCARGAVYHGYDVIDNWGQGTLVTVSS VL: DIQMTQSPSSLSASVGDRVTITCRASQSISSYLNWYQQKPGKAPKLLIYATSNLQIGVPSRFSGSGSGTDFTLTISSLQPEDFATYYCQQYRRIPWTFGQGTKLEIKR | ~1 | 1.3 | 4.04 | 73.7 | – |
| AB218-ADL1-D2-02 (antibody, human IgG1, kappa, V domains shown, ADL1-D2 linker-payload on cysteine residues of the antibody, DAR 3.77) VH: QVQLVQSGAEVKKPGSSVKVSCKASGGTFSNYWIHWVRQAPGQGLEWMGATYRSQSTTYYNQKFKSRVTITADKSTSTAYMELSSLRSEDTAVYYCARGAVYHGYDVIDNWGQGTLVTVSS VL: DIQMTQSPSSLSASVGDRVTITCRASQSISSYLNWYQQKPGKAPKLLIYATSNLQIGVPSRFSGSGSGTDFTLTISSLQPEDFATYYCQQFRRLPWTFGQGTKLEIKR | – | 0.333 | 0.985 | 19.8 | – |
| AB216 (antibody, human IgG1, kappa, V domains shown, IgG1 kappa) VH: QVQLVQSGAEVKKPGSSVKVSCKASGGTFSNYWIHWVRQAPGQGLEWMGATYRIQSDTYYNQKYKSRVTITADKSTSTAYMELSSLRSEDTAVYYCARGAVYHGYDVIDNWGQGTLVTVSS VL: DIQMTQSPSSLSASVGDRVTITCRASQSISSYINWYQQKPGKAPKLLIYATSNLQIGVPSRFSGSGSGTDFTLTISSLQPEDFATYYCQQYRRLPWSFGQGTKLEIKR | – | – | – | – | Kd [1]: 2.27 nM; Kd [2]: 3.05 nM; Kd [3]: 6.43 nM |
| AB216-ADL1-D2-02 (antibody, human IgG1, kappa, V domains shown, ADL1-D2 linker-payload on cysteine residues of the antibody, DAR 3.8) VH: QVQLVQSGAEVKKPGSSVKVSCKASGGTFSNYWIHWVRQAPGQGLEWMGATYRIQSDTYYNQKYKSRVTITADKSTSTAYMELSSLRSEDTAVYYCARGAVYHGYDVIDNWGQGTLVTVSS VL: DIQMTQSPSSLSASVGDRVTITCRASQSISSYINWYQQKPGKAPKLLIYATSNLQIGVPSRFSGSGSGTDFTLTISSLQPEDFATYYCQQYRRLPWSFGQGTKLEIKR | ~0.7 | 0.836 | 1.56 | 14 | – |
| AB213-ADL1-D2-02 (antibody, human IgG1, kappa, V domains shown, ADL1-D2 linker-payload on cysteine residues of the antibody, DAR 4.18) VH: QVQLVQSGAEVKKPGSSVKVSCKASGGTFTNYWIHWVRQAPGQGLEWMGGTYRSHSTTYYNQKFKSRVTITADKSTSTAYMELSSLRSEDTAVYYCARGAVYHGYDVIDNWGQGTLVTVSS VL: DIQMTQSPSSLSASVGDRVTITCRASQSISSYLNWYQQKPGKAPKLLIYATSNLQIGVPSRFSGSGSGTDFTLTISSLQPEDFATYYCQQFRRLPWTFGQGTKLEIKR | ~0.6 | 0.5 | – | – | – |
| AB200-(2Vk31)_R2-VH-v20 (Fab, V domains shown, also called AB200_VH2-20_VK2-31) VH: QVQLVQSGAEVKKPGSSVKVSCKASGGTFSNYWIHWVRQAPGQGLEWMGGTYRSHSDTNYNQKFKSRVTITADKSTSTAYMELSSLRSEDTAVYYCARGAIYHGYDVIENWGQGTLVTVSS VL: DIQMTQSPSSLSASVGDRVTITCRASQSISSYLNWYQQKPGKAPKLLIYATSNLQIGVPSRFSGSGSGTDFTLTISSLQPEDFATYYCQQFRRLPWTFGQGTKLEIKR | – | – | – | – | Kd [7]: 93.8 nM; Kd [8]: 42 nM; Kd [9]: 79.3 nM; Kd [10]: 38.6 nM |
| AB200-(2Vk31)_R2-VH-v27 (Fab, V domains shown, also called AB200_VH2-27_VK2-31) VH: QVQLVQSGAEVKKPGSSVKVSCKASGGTFSNYWIHWVRQAPGQGLEWMGATYRSQSTTYYNQKFKSRVTITADKSTSTAYMELSSLRSEDTAVYYCARGAVYHGYDVIDNWGQGTLVTVSS VL: DIQMTQSPSSLSASVGDRVTITCRASQSISSYLNWYQQKPGKAPKLLIYATSNLQIGVPSRFSGSGSGTDFTLTISSLQPEDFATYYCQQFRRLPWTFGQGTKLEIKR | – | – | – | – | Kd [7]: 15.3 nM; Kd [8]: 7.13 nM; Kd [9]: 13.9 nM; Kd [10]: 6.43 nM |
| AB218 (antibody, human IgG1, kappa, V domains shown, IgG1 kappa) VH: QVQLVQSGAEVKKPGSSVKVSCKASGGTFSNYWIHWVRQAPGQGLEWMGATYRSQSTTYYNQKFKSRVTITADKSTSTAYMELSSLRSEDTAVYYCARGAVYHGYDVIDNWGQGTLVTVSS VL: DIQMTQSPSSLSASVGDRVTITCRASQSISSYLNWYQQKPGKAPKLLIYATSNLQIGVPSRFSGSGSGTDFTLTISSLQPEDFATYYCQQFRRLPWTFGQGTKLEIKR | – | – | – | – | Kd [1]: 0.687 nM; Kd [2]: 0.987 nM; Kd [3]: 2.15 nM |
| AB217-ADL1-D2-02 (antibody, human IgG1, kappa, V domains shown, ADL1-D2 linker-payload on cysteine residues of the antibody, DAR 3.7) VH: QVQLVQSGAEVKKPGSSVKVSCKASGGTFTNYWIHWVRQAPGQGLEWMGATYRSHSDTYYAQKYKSRVTITADKSTSTAYMELSSLRSEDTAVYYCARGAVYHGYDVIDNWGQGTLVTVSS VL: DIQMTQSPSSLSASVGDRVTITCRASQSISSYINWYQQKPGKAPKLLIYATSNLQSGVPSRFSGSGSGTDFTLTISSLQPEDFATYYCQQYRRIPWTFGQGTKLEIKR | ~0.4 | 0.366 | 2.17 | 16.3 | – |
| AB200-(2Vk31)_R2-VH-v3 (Fab, V domains shown, also called AB200_VH2-03_VK2-31) VH: QVQLVQSGAEVKKPGSSVKVSCKASGGTFTNYWIHWVRQAPGQGLEWMGGTYRSHSTTYYNQKFKSRVTITADKSTSTAYMELSSLRSEDTAVYYCARGAVYHGYDVIDNWGQGTLVTVSS VL: DIQMTQSPSSLSASVGDRVTITCRASQSISSYLNWYQQKPGKAPKLLIYATSNLQIGVPSRFSGSGSGTDFTLTISSLQPEDFATYYCQQFRRLPWTFGQGTKLEIKR | – | – | – | – | Kd [7]: 5.73 nM; Kd [8]: 2.55 nM; Kd [9]: 5.03 nM; Kd [10]: 2.7 nM |
